In article PMC10602876, “Global profiling of ribosomal protein acetylation reveals essentiality of acetylation homeostasis in maintaining ribosome assembly and function” (Nucleic Acids Research, 2023):
Residue numbers refer to the chain shown, from its start. Names may count otherwise.

B1: 50S large subunit ribosomal protein L7/L12, wild type, His-tagged (natural protein, S. Typhimurium, UniProt P0A299 1-121, looked up)
chain: MSITKDQIIEAVSAMSVMDVVELISAMEEKFGVSAAAAVAVAAGPAEAAEEKTEFDVILKAAGANKVAVIKAVRGATGLGLKEAKDLVESAPAALKEGVSKDDAEALKKSLEEAGAEVEVK
notes: 50S ribosomal protein L7/L12 (RplL), S. Typhimurium strain 14028S, gene amplified from the genomic DNA; The r-protein genes seem to have been cloned into pSUMO3; also called WT L7/L12; RplL; source: E. coli BL21, purified (Ni-NTA); not shown: His6, C-terminal, kept
B2: L7/L12 K65R, His-tagged (natural protein)
chain: B1 chain with K66R
notes: 50S ribosomal protein L7/L12 (RplL), S. Typhimurium strain 14028S; Mimic of the non-acetylated form; same construct as m2 with the substitution; source: E. coli, purified (Ni-NTA); not shown: His6, C-terminal, kept
B3: L7/L12 K65Q, His-tagged (natural protein)
chain: B1 chain with K66Q
notes: 50S ribosomal protein L7/L12 (RplL), S. Typhimurium strain 14028S; Acetylation mimic; same construct as m2 with the substitution; source: E. coli, purified (Ni-NTA); not shown: His6, C-terminal, kept
B4: L7/L12 K70R, His-tagged (natural protein)
chain: B1 chain with K71R
notes: as for B2
B5: L7/L12 K70Q, His-tagged (natural protein)
chain: B1 chain with K71Q
notes: as for B3

What follows are binders tested against T1, Elongation factor EF-Tu, His-tagged, biotinylated (S. Typhimurium, UniProt P0A1H5 1-394, biotin (site not stated)) (assay: BLI; printed as thin-film interferometry (TFI), GatorPrime label-free analyzer; biotinylated EF-Tu loaded on the sensors; L7/L12 or mutants in solution at 12.5, 6.25, 3.125, 1.563, 0.781 and 0.391 uM in binding buffer at pH 7.4). Details: both partners purified.
T1 construct: Elongation factor Tu (tufA), S. Typhimurium strain 14028S, gene amplified from the genomic DNA; The methods sentence on vectors (pSUMO3 and pQE80, 'respectively') leaves open which vector was used; probably pQE80 with a C-terminal 6xHis; also called tufA; source: E. coli BL21, purified (Ni-NTA); biotinylated, PD-10 column; not shown: His6, C-terminal, kept
T1 sequence (P0A1H5 whole entry): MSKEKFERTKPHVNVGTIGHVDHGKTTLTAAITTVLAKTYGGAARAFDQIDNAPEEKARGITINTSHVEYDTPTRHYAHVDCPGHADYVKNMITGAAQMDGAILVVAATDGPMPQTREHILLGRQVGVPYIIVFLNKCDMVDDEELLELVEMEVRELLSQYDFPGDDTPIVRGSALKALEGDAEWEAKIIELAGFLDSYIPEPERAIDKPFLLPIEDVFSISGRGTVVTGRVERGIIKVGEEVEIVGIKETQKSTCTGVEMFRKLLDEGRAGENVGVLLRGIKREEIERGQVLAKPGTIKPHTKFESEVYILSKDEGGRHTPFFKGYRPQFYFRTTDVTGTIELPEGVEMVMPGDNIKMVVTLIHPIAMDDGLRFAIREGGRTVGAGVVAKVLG

| Binder | Kd [nM] |
| --- | --- |
| B1 | 740 |
| B2 | 2690 |
| B3 | 1520 |
| B4 | 1810 |
| B5 | 1310 |
